The text below walks through data of patent EP4667491A1 (Genome and Company, dated 2025).

The target of assay [1] is T1, Human CNTN4 (His-tagged) (human, UniProt Q8IWV2 19-1000, limits assumed).
T1 construct: also called human CNTN4 protein; not shown: His tag
T1 sequence (looked up): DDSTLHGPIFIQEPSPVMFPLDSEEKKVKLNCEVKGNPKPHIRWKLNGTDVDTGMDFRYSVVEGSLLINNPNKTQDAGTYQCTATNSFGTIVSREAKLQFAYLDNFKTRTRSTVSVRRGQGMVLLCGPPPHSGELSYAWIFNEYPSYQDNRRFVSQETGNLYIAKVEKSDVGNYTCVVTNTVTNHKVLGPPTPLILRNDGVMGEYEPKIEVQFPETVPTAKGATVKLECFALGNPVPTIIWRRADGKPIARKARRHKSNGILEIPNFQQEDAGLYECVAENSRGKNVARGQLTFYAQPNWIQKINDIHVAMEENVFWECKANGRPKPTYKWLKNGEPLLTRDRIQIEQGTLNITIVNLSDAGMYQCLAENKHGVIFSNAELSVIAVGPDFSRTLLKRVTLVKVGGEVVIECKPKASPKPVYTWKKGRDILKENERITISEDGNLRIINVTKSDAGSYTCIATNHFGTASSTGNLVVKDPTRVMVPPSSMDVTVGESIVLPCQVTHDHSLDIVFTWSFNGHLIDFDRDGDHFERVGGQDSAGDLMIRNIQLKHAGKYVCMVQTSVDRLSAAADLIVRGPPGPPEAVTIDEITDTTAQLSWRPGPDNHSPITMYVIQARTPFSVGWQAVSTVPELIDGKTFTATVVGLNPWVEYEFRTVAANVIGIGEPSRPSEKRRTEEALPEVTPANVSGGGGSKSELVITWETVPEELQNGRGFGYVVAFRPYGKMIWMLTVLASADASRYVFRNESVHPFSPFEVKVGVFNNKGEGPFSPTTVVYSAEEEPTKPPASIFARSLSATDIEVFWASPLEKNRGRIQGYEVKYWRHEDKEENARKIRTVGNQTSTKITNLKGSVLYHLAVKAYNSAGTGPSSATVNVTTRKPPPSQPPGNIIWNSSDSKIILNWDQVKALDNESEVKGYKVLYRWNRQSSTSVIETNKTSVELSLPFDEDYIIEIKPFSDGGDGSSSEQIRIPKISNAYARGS
Nature of the assay: ELISA; His-tagged human CNTN4 captured by anti-His antibody, anti-human IgG-HRP. (An ELISA detects its analyte on a solid surface through an enzyme-linked reagent.)

Assay [2] deals with T2, human CNTN4 expressed on the cell surface (human, UniProt Q8IWV2 19-1000).
T2 construct: whole, on cells; also called human CNTN4 cell
T2 sequence (looked up): T1 sequence (looked up)
Nature of the assay: flow cytometry; IgG on human CNTN4-overexpressing HEK293 cells. In general terms: Flow cytometry measures light scatter and fluorescence of single cells or particles in a stream.

Assay [3] has as its target T2, human CNTN4 expressed on the cell …. The assay is described as above. The source holds these as a separate data set.
The target in assay [4] is T1, Human CNTN4 (His-tagged). As to the kind of experiment: ELISA; His-tagged human CNTN4 captured by anti-His antibody, anti-human IgG-HRP. The source holds these as a separate data set.
Assay [5] has as its target T1, Human CNTN4 (His-tagged). As to the kind of experiment: SPR; IgG captured on CM5 chip, His-tagged human CNTN4 as analyte, 1:1 fit. (SPR reads the build-up and loss of mass on a sensor chip optically.)

Residue numbers refer to the chain shown, from its start. Numbers in names are those of the source. Where two headings read alike, the source gives them in different places.

B1: A114-IgG antibody (antibody, V domains shown)
VH: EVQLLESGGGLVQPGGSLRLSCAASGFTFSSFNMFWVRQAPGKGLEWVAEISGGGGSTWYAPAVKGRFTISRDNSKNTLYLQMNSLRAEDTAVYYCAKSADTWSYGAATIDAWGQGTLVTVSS
VL: ELTQDPAVSVALGQTVRITCSGSSGSYGWYQQKPGQAPVLVIYDNTNRPSGIPDRFSGSSSGNTASLTITGAQAEDEADYYCGGYWGSTDVFGGGTKLTVL
notes: VH fused to CH1, hinge, CH2 and CH3 of human IgG4 (S228P); also called A114-IgG Ab; Al14-IgG Ab
The EC50 is the concentration that produces a half-maximal response. The low end stands for greater potency, the high end for weaker potency. Turning to B1, the EC50 in assay [1] turned out to be 129 pM; in assay [2], 262 pM; in assay [3], 539 pM. The “TOP MFI” value in assay [2] came out at 470 MFI.

B2: A108-IgG antibody (antibody, V domains shown)
VH: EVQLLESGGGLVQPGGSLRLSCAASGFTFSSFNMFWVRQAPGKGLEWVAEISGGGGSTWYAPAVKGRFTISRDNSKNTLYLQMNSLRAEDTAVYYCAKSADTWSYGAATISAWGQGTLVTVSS
VL: B1 VL with W86D
notes: VH fused to CH1, hinge, CH2 and CH3 of human IgG4 (S228P); also called A108-IgG Ab
On to B2, for which the EC50 in assay [1] was found to be 34 pM. In assay [2], the EC50 is 74 pM and the “TOP MFI” value was found to be 356 MFI.

B3: A202-IgG antibody (antibody, V domains shown)
VH: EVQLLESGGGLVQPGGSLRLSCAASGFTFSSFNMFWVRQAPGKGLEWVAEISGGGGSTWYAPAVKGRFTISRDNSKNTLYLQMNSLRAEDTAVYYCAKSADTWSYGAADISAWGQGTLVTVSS
VL: B1 VL with S23R
notes: VH fused to CH1, hinge, CH2 and CH3 of human IgG4 (S228P); also called A202-IgG Ab
Turning to B3, the EC50 in assay [4] is 35 pM.

B4: A206-IgG antibody (antibody, V domains shown)
VH: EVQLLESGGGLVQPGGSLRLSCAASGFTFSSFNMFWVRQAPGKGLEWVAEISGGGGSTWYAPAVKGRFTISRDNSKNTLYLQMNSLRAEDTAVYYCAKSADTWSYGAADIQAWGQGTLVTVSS
VL: B1 VL with S23R
notes: VH fused to CH1, hinge, CH2 and CH3 of human IgG4 (S228P); also called A206-IgG Ab
For orientation: Kd means the free concentration of one partner at which half of the binding sites on the other are occupied at equilibrium, for simple one-to-one binding. Consider B4, for which binding in assay [5] was characterised by a dissociation constant (Kd) of 702 pM. This molecule also registered an EC50 in assay [4] of 27 pM.

B5: A105-IgG antibody (antibody, V domains shown)
VH: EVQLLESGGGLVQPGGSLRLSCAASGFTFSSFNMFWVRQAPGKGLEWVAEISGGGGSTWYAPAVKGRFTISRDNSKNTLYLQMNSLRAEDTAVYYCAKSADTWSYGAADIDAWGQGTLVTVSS
VL: B1 VL with W86D
notes: VH fused to CH1, hinge, CH2 and CH3 of human IgG4 (S228P); also called A105-IgG Ab
In the case of B5, the EC50 in assay [1] came to 153 pM; in assay [2] it was 234 pM. Also, in assay [2], the “TOP MFI” value is 454 MFI.

B6: A112-IgG antibody (antibody, V domains shown)
VH: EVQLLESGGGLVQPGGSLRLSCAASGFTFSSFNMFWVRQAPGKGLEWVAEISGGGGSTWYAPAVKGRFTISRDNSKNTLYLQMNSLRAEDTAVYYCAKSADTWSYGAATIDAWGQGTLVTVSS
VL: B1 VL with S23R, W86D
notes: VH fused to CH1, hinge, CH2 and CH3 of human IgG4 (S228P); also called A112-IgG Ab
B6: the EC50 in assay [1] came to 75 pM. In assay [2], the midpoint of the response, the EC50, lay at 204 pM and the “TOP MFI” value is 422 MFI.

B7: A109-IgG antibody (antibody, V domains shown)
VH: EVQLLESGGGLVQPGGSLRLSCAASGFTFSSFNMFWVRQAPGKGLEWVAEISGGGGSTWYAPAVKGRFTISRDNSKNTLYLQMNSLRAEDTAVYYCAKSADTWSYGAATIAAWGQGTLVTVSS
VL: B1 VL with W86D
notes: VH fused to CH1, hinge, CH2 and CH3 of human IgG4 (S228P); also called A109-IgG Ab
Consider B7, for which the EC50 in assay [1] is 41 pM; in assay [2] it was 82 pM. The “TOP MFI” value in assay [2] is 357 MFI.

B8: A102-IgG antibody (antibody, V domains shown)
VH: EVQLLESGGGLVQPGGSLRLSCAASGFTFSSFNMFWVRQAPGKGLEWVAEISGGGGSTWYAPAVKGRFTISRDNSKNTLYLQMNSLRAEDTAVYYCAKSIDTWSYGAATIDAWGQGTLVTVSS
VL: B1 VL with W86D
notes: VH fused to CH1, hinge, CH2 and CH3 of human IgG4 (S228P); also called A102-IgG Ab
For B8, the EC50 stood at 57 pM in assay [1] and 66 pM in assay [2]. The “TOP MFI” value in assay [2] stood at 328 MFI.

B9: A204-IgG antibody (antibody, V domains shown)
VH: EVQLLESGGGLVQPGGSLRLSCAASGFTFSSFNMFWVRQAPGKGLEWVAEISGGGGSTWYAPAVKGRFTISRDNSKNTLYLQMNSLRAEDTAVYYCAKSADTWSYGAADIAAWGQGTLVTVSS
VL: B1 VL with S23R
notes: VH fused to CH1, hinge, CH2 and CH3 of human IgG4 (S228P); also called A204-IgG Ab
Turning to B9, the Kd in assay [5] was determined as 663 pM. In assay [4], this molecule displayed an EC50 of 15 pM.

B10: A106-IgG antibody (antibody, V domains shown)
VH: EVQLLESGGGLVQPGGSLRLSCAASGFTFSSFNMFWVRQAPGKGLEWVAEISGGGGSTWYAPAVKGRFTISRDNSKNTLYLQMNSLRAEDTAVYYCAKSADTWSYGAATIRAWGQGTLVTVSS
VL: B1 VL with W86D
notes: VH fused to CH1, hinge, CH2 and CH3 of human IgG4 (S228P); also called A106-IgG Ab
On to B10, for which it took 42 pM to reach a half-maximal effect in assay [1] (EC50). Further, in assay [2], a half-maximal effect (EC50) was put at 86 pM and the “TOP MFI” value came out at 336 MFI.

B11: A211-IgG antibody (antibody, V domains shown)
VH: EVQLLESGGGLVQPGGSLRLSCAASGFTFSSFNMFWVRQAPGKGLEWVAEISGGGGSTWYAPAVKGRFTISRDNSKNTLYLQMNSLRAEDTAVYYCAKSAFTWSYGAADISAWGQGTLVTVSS
VL: B1 VL with S23R
notes: VH fused to CH1, hinge, CH2 and CH3 of human IgG4 (S228P); also called A211-IgG Ab
In assay [5], B11 gave an equilibrium dissociation constant (Kd) of 709 pM. For the same molecule, the EC50 is 316 pM in assay [3] and 33 pM in assay [4].

B12: A217-IgG antibody (antibody, V domains shown)
VH: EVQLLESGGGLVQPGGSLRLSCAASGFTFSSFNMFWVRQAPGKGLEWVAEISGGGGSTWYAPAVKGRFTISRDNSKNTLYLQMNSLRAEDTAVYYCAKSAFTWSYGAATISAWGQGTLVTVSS
VL: B1 VL
notes: VH fused to CH1, hinge, CH2 and CH3 of human IgG4 (S228P); also called A217-IgG Ab
In assay [5], B12 returned a Kd of 1180 pM. The same molecule came in with an EC50 in assay [4] of 33 pM.

B13: A209-IgG antibody (antibody, V domains shown)
VH: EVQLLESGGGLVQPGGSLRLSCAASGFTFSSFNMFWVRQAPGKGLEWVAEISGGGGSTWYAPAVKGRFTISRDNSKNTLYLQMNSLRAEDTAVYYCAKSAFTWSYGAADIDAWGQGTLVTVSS
VL: B1 VL with S23R
notes: VH fused to CH1, hinge, CH2 and CH3 of human IgG4 (S228P); also called A209-IgG Ab; A209-TgG Ab
As to B13, the Kd in assay [5] worked out at 662 pM. The same molecule displayed an EC50 in assay [4] of 26 pM.

B14: A104-IgG antibody (antibody, V domains shown)
VH: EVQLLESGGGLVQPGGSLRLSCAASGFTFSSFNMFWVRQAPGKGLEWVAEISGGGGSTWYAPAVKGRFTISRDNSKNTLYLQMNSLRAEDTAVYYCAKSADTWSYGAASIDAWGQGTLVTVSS
VL: B1 VL with W86D
notes: VH fused to CH1, hinge, CH2 and CH3 of human IgG4 (S228P); also called A104-IgG Ab
Consider B14, for which a half-maximal effect in assay [1] (EC50) was put at 69 pM. In assay [2], the concentration giving a half-maximal response (EC50) stood at 109 pM and the “TOP MFI” value is 358 MFI.

B15: A103-IgG antibody (antibody, V domains shown)
VH: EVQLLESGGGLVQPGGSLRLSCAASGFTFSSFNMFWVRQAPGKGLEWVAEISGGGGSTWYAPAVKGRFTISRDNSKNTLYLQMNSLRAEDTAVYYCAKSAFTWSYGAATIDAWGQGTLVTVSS
VL: B1 VL with W86D
notes: VH fused to CH1, hinge, CH2 and CH3 of human IgG4 (S228P); also called A103-IgG Ab
In assay [1], B15 yielded a 50% effective concentration (EC50) of 31 pM. In assay [2], a half-maximal effect (EC50) was put at 90 pM and the “TOP MFI” value was 378 MFI.
